Experimental findings from the supplement of paper PMC10567573 are described below.

± gives the standard deviation.

The data set in a line: protein stability index of a GFP-peptide fusion (GPS, HEK-293T) (PSI 1-6); higher = more stable. As to conditions: c terminus: a fixed tail appended.
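Further: 24-mer peptide tiles fused after GFP, lentivirally expressed, FACS-sorted into six equal bins by GFP/DsRed ratio, decoded by Illumina sequencing, PSI is the read-weighted mean bin number.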

On to VSMETYHVTLTLPPTQLEVNLEEI [C2CD2L], for which the protein stability index (treatment: DMSO) came to 2.34 ± 0.35 and the protein stability index (treatment: MLN4924 1 uM, 8 h) was found to be 2.27 ± 0.31.

As to VTEFILLGLTQNPEGQKVLFVTFL [OR4A15], the protein stability index is, setting by setting: (treatment: DMSO) 2.96 ± 0.44; (treatment: MLN4924 1 uM, 8 h) 3.27 ± 0.29.

For VTIPAGATHILVRQQGNPGHRSIY [ADAMTS4], the protein stability index was found to be 2.51 ± 0.12 (treatment: DMSO) and 2.32 ± 0.52 (treatment: MLN4924 1 uM, 8 h).

On to VTQEPRAKKGRRNQSVEPKKEEPE [ZMYND11], for which the protein stability index reads like this: (treatment: DMSO) 5.45 ± 0.24; (treatment: MLN4924 1 uM, 8 h) 5.6 ± 0.21.

For the sequence VTVLEDLEKGLEPEPQVPGPAHGP [ZNF232], the protein stability index runs as follows: (treatment: DMSO) 4.99 ± 0.27; (treatment: MLN4924 1 uM, 8 h) 4.874 ± 0.039.

Regarding VVGNWQYFFPVIFSKASDSLQLVF [MAGEA6], the protein stability index stood at 3.21 ± 0.34 (treatment: DMSO) and 3.32 ± 0.63 (treatment: MLN4924 1 uM, 8 h).

Consider VVQDSVNISGHTNTNTLKVPECRL [SPOPL], for which the protein stability index is 3.34 ± 0.25 (treatment: DMSO) and 3.56 ± 0.43 (treatment: MLN4924 1 uM, 8 h).

Consider VYTRHGVPISVTGIAQVKIQGQNK [FLOT1], for which the protein stability index is, setting by setting: (treatment: DMSO) 2.72 ± 0.12; (treatment: MLN4924 1 uM, 8 h) 2.63 ± 0.39.

Consider WEEAQSPANCPACREPSPKMDFKT [TRIM43], for which the protein stability index (treatment: DMSO) was determined as 4.56 ± 0.076 and the protein stability index (treatment: MLN4924 1 uM, 8 h) was found to be 4.83 ± 0.25.

WGGQEDREPAGRWKEGRPRVEESG [PBXIP1] came in with a protein stability index (treatment: DMSO) of 4.79 ± 0.21 and a protein stability index (treatment: MLN4924 1 uM, 8 h) of 5.05 ± 0.099.

For WGKGARGRLGRRDEDAGLPRPVQL [NEK8], the protein stability index by setting is: (treatment: DMSO) 3.37 ± 0.23; (treatment: MLN4924 1 uM, 8 h) 3.48 ± 0.32.

Regarding WGLEEEDFQPREEAMLYHNQTAEL [P3H4], the protein stability index reads like this: (treatment: DMSO) 4.61 ± 0.084; (treatment: MLN4924 1 uM, 8 h) 4.5 ± 0.48.

Turning to WGVFYYFVSALGITAGAHRLWSHR [SCD], the protein stability index came to 3.38 ± 0.79 (treatment: DMSO) and 2.63 ± 0.62 (treatment: MLN4924 1 uM, 8 h).

WILLAESNSADDETDDPRRYQKYG [OAS1] registered a protein stability index (treatment: DMSO) of 3.19 ± 0.17 and a protein stability index (treatment: MLN4924 1 uM, 8 h) of 3.32 ± 0.21.

With WIQVTSLRIFVWLLLLYFMQVIAI [PHTF1], the protein stability index reads like this: (treatment: DMSO) 3.08 ± 0.43; (treatment: MLN4924 1 uM, 8 h) 2.93 ± 0.42.

As to WLHALHLRQKGNRNTHKDLLRFAQ [FEM1B], the protein stability index is, setting by setting: (treatment: DMSO) 2.44 ± 0.52; (treatment: MLN4924 1 uM, 8 h) 2.35 ± 0.15.

As to WVFGTSFLPFLLCAVLLSAVQAQA [FADS1], the protein stability index was 3.09 ± 0.6 (treatment: DMSO) and 2.51 ± 0.12 (treatment: MLN4924 1 uM, 8 h).

Turning to WVRSVSFSHDGLHVASLADDKMVR [WSB1], the protein stability index is 2.66 ± 0.4 (treatment: DMSO) and 3.54 ± 0.45 (treatment: MLN4924 1 uM, 8 h).

On to WVYKNKLIFFGGYGYLPEDKVLGT [KLHDC2], for which the protein stability index came to 2.55 ± 1.1 (treatment: DMSO) and 2.88 ± 1.4 (treatment: MLN4924 1 uM, 8 h).

Turning to YARYHQAFADRDQSERQRHESQQL [TEKT4], the protein stability index was determined as 2.83 ± 0.71 (treatment: DMSO) and 3.66 ± 0.64 (treatment: MLN4924 1 uM, 8 h).

For YCNFNKYIPRRLEEAAMQKCLVTE [RSAD1], the protein stability index (treatment: DMSO) came out at 2.32 ± 0.41 and the protein stability index (treatment: MLN4924 1 uM, 8 h) worked out at 2.51 ± 0.38.

YCYRCGNQAAIMELDDTLKYSFLQ [PPP2CA] returned a protein stability index (treatment: DMSO) of 2.74 ± 0.58 and a protein stability index (treatment: MLN4924 1 uM, 8 h) of 2.58 ± 0.5.

For YDLWASDNPLDRPLVGQDEFFLEQ [NOP53], the protein stability index by setting is: (treatment: DMSO) 4.31 ± 0.13; (treatment: MLN4924 1 uM, 8 h) 3.69 ± 0.43.

Take YDSFDSEDYPAALPNHKPKGTFKD [ETS1]: the protein stability index is 5.05 ± 0.17 (treatment: DMSO) and 4.83 ± 0.22 (treatment: MLN4924 1 uM, 8 h).

As to YEFNPDFLEEAHEWNQKRARKAMR [N4BP2L1], the protein stability index is, setting by setting: (treatment: DMSO) 3.88 ± 0.2; (treatment: MLN4924 1 uM, 8 h) 4.19 ± 0.29.

In the case of YESEILPSTPNPQPPSCQGEAAGS [DUSP5], the protein stability index came out at 5.24 ± 0.13 (treatment: DMSO) and 5.296 ± 0.002 (treatment: MLN4924 1 uM, 8 h).

On to YGFSLKTVQGKKGVYMTDITPQGV [PDZK1], for which the protein stability index (treatment: MLN4924 1 uM, 8 h) is 2.5 ± 0.68.

On to YGLKPLTPNSKYVKLNVGGSLHYT [KCTD13], for which the protein stability index (treatment: DMSO) came out at 2.33 ± 0.23 and the protein stability index (treatment: MLN4924 1 uM, 8 h) was found to be 2.49 ± 0.19.

With YIPRDVDETGITVASLERFSTYTS [ZC3H15], the protein stability index amounted to 2.65 ± 0.16 (treatment: DMSO) and 2.96 ± 0.16 (treatment: MLN4924 1 uM, 8 h).

For the sequence YLASLCMCFGPKKVKPAEAETAGA [SLC29A1], the protein stability index runs as follows: (treatment: DMSO) 2.6 ± 0.28; (treatment: MLN4924 1 uM, 8 h) 2.83 ± 0.23.

Take YLRPQSNYSSSQDALISVSYTIIT [OR10K2]: the protein stability index is, setting by setting: (treatment: DMSO) 2.73 ± 0.7; (treatment: MLN4924 1 uM, 8 h) 2.68 ± 0.99.

Consider YMTKPSKSLLPHLKTGNSSPGIGA [RTP4], for which the protein stability index was found to be 3.13 ± 0.13 (treatment: DMSO) and 3.22 ± 0.27 (treatment: MLN4924 1 uM, 8 h).

In turn, YPEEADGTLDCISMALTCTFNRWG [RBBP5] yielded a protein stability index (treatment: DMSO) of 2.19 ± 0.23 and a protein stability index (treatment: MLN4924 1 uM, 8 h) of 2.11 ± 0.28.

Regarding YPSLQAMGWFNNEVGSMKIQSGAW [CRYBA1], the protein stability index runs as follows: (treatment: DMSO) 1.99 ± 0.41; (treatment: MLN4924 1 uM, 8 h) 2.45 ± 0.17.

For the sequence YQHLEEDMKSLKQVLEMKNQQIHE [MTUS2], the protein stability index came to 4.07 ± 0.11 (treatment: DMSO) and 4.27 ± 0.36 (treatment: MLN4924 1 uM, 8 h).

YQPEPFACGIEHCSVHYVSDSGDG [FBXO34]: the protein stability index (treatment: DMSO) is 2.93 ± 0.27 and the protein stability index (treatment: MLN4924 1 uM, 8 h) turned out to be 3.04 ± 0.26.

In the case of YQRPQDSEDMWGDEDFTFGAYQPT [FBF1], the protein stability index reads like this: (treatment: DMSO) 3.2 ± 0.55; (treatment: MLN4924 1 uM, 8 h) 3.76 ± 0.48.

Consider YSLTTSSTHKRSSLRKVKLVRPPQ [RAB40B], for which the protein stability index reads like this: (treatment: DMSO) 3.42 ± 0.24; (treatment: MLN4924 1 uM, 8 h) 3.63 ± 0.32.

As for YSLVLELSDSGAFRRSLHDPDGLV [APMAP], the protein stability index is 2.28 ± 0.48 (treatment: DMSO) and 2.14 ± 0.38 (treatment: MLN4924 1 uM, 8 h).

Turning to YVKYQVAIHQDPPDECGKTEFTRF [ATE1], the protein stability index reads like this: (treatment: DMSO) 2.4 ± 0.2; (treatment: MLN4924 1 uM, 8 h) 2.56 ± 0.5.

In the case of YYHRGHVDPANDTFDIDPMVVTDC [MCOLN1], the protein stability index (treatment: DMSO) came to 3.63 ± 0.21 and the protein stability index (treatment: MLN4924 1 uM, 8 h) stood at 3.78 ± 0.14.
